Source: the Immune Epitope Database (IEDB)

Experiments:
[1] = biological target: HLA-B*27:05; assay: IEDB peptide-MHC binding, purified MHC/competitive/fluorescence; filed as Kd, often an IC50 or EC50 that approximates it; ≥ and ≤ were set here for values at or beyond the usual limits of such assays
[2] = biological target: HLA-A*26:02; assay: IEDB peptide-MHC binding, purified MHC/direct/fluorescence; filed as Kd, often an IC50 or EC50 that approximates it; ≥ and ≤ were set here for values at or beyond the usual limits of such assays
[3] = biological target: HLA-A*26:01; assay: as above; details: source organism: Vibrio cholerae V52
[4] = biological target: HLA-B*46:01; assay: as above
[5] = biological target: HLA-A*03:01; assay: as above
[6] = biological target: HLA-A*02:03; assay: as above; details: source organism: Influenza A virus (A/Taiwan/2/2006(H1N1))
[7] = biological target: HLA-A*02:06; assay: as above; details: source organism: Influenza A virus (A/Taiwan/2/2006(H1N1))
[8] = biological target: HLA-B*15:09; assay: as above
[9] = biological target: HLA-B*27:05; assay: as above
[10] = biological target: HLA-B*40:01; assay: as above
[11] = biological target: HLA-B*44:02; assay: as above
[12] = biological target: HLA-B*58:01; assay: as above
[13] = biological target: HLA-A*02:11; assay: as above
[14] = biological target: HLA-B*18:01; assay: as above
[15] = biological target: HLA-A*02:01; assay: as above
[16] = biological target: HLA-B*15:01; assay: as above
[17] = biological target: HLA-B*07:02; assay: as above
[18] = biological target: HLA-A*11:01; assay: as above; details: source organism: Influenza A virus (A/camel/Mongolia/1982(H1N1))
[19] = biological target: HLA-B*08:01; assay: as above; details: source organism: Influenza A virus (A/camel/Mongolia/1982(H1N1))
[20] = biological target: HLA-A*01:01; assay: as above
[21] = biological target: HLA-A*24:02; assay: as above; details: source organism: Influenza A virus (A/camel/Mongolia/1982(H1N1))
[22] = biological target: HLA-A*02:12; assay: as above
[23] = biological target: HLA-A*31:01; assay: as above
[24] = biological target: HLA-B*40:01; assay: IEDB peptide-MHC binding, purified MHC/competitive/fluorescence; filed as Kd, often an IC50 or EC50 that approximates it; ≥ and ≤ were set here for values at or beyond the usual limits of such assays
[25] = biological target: HLA-C*07:02; assay: IEDB peptide-MHC binding, purified MHC/direct/fluorescence; filed as Kd, often an IC50 or EC50 that approximates it; ≥ and ≤ were set here for values at or beyond the usual limits of such assays
[26] = biological target: HLA-B*39:01; assay: as above
[27] = biological target: HLA-A*69:01; assay: as above; details: source organism: Lassa virus Josiah
[28] = biological target: HLA-B*48:01; assay: as above; details: source organism: Lassa virus Josiah
[29] = biological target: HLA-B*57:01; assay: as above
[30] = biological target: HLA-A*24:02; assay: IEDB peptide-MHC binding, purified MHC/competitive/fluorescence; filed as Kd, often an IC50 or EC50 that approximates it; ≥ and ≤ were set here for values at or beyond the usual limits of such assays
[31] = biological target: HLA-C*15:02; assay: IEDB peptide-MHC binding, purified MHC/direct/fluorescence; filed as Kd, often an IC50 or EC50 that approximates it; ≥ and ≤ were set here for values at or beyond the usual limits of such assays
[32] = biological target: HLA-C*14:02; assay: as above
[33] = biological target: HLA-C*06:02; assay: as above; details: source organism: Toxoplasma gondii
[34] = biological target: HLA-B*39:01; assay: IEDB peptide-MHC binding, purified MHC/competitive/fluorescence; filed as Kd, often an IC50 or EC50 that approximates it; ≥ and ≤ were set here for values at or beyond the usual limits of such assays; details: source organism: Toxoplasma gondii
[35] = biological target: HLA-A*26:01; assay: as above; details: source organism: Toxoplasma gondii
[36] = biological target: HLA-A*03:01; assay: as above; details: source organism: Toxoplasma gondii
[37] = biological target: HLA-B*18:01; assay: as above; details: source organism: Toxoplasma gondii
[38] = biological target: HLA-B*27:03; assay: as above; details: source organism: Toxoplasma gondii
[39] = biological target: HLA-A*02:19; assay: as above; details: source organism: Toxoplasma gondii
[40] = biological target: HLA-A*02:12; assay: as above; details: source organism: Toxoplasma gondii
[41] = biological target: HLA-A*31:01; assay: as above; details: source organism: Toxoplasma gondii
[42] = biological target: HLA-A*24:03; assay: IEDB peptide-MHC binding, purified MHC/direct/fluorescence; filed as Kd, often an IC50 or EC50 that approximates it; ≥ and ≤ were set here for values at or beyond the usual limits of such assays; details: source organism: Yersinia enterocolitica subsp. enterocolitica 8081
[43] = biological target: HLA-B*15:17; assay: as above; details: source organism: Yersinia enterocolitica subsp. enterocolitica 8081
[44] = biological target: HLA-B*27:03; assay: as above; details: source organism: Yersinia enterocolitica subsp. enterocolitica 8081
[45] = biological target: HLA-A*02:19; assay: as above; details: source organism: Yersinia enterocolitica subsp. enterocolitica 8081
[46] = source organism: Influenza A virus (A/camel/Mongolia/1982(H1N1))
[47] = source organism: Influenza A virus (A/Taiwan/2/2006(H1N1))
[48] = source organism: Influenza A virus (A/Harbin/1/1988(H1N2))
[49] = source organism: Lassa virus Josiah
[50] = source organism: Toxoplasma gondii
[51] = source organism: Yersinia enterocolitica subsp. enterocolitica 8081
[52] = source organism: Vibrio vulnificus YJ016

AREIRDQGY
Kd ([1]; source organism: Escherichia coli 536): ≥ 20 µM

DIIWHLNDL
Kd ([2]; source organism: Vibrio cholerae V52): 0.003 µM
Kd [3]: 0.479 µM

ELDEIGEDV
Kd [4, 46]: ≥ 20 µM
Kd [5, 46]: ≥ 20 µM
Kd [6]: ≥ 5 µM
Kd [7]: ≥ 20 µM
Kd [8, 47]: ≥ 20 µM
Kd [9, 46]: ≥ 20 µM
Kd [10, 46]: ≥ 20 µM
Kd [11, 46]: ≥ 20 µM
Kd [12, 46]: ≥ 20 µM
Kd [13, 47]: 0.134 µM
Kd [14, 46]: ≥ 20 µM
Kd ([15]; source organism: Influenza A virus (A/Puerto Rico/8/34/Mount Sinai(H1N1))): 2.44 µM
Kd [16, 46]: ≥ 20 µM
Kd [17, 46]: ≥ 20 µM
Kd [18]: ≥ 20 µM
Kd [19]: ≥ 20 µM
Kd [20, 46]: ≥ 20 µM
Kd [21]: ≥ 20 µM
Kd [22, 47]: 1.5 µM
Kd [23, 46]: ≥ 20 µM

EVHTWTEQY
Kd ([2]; source organism: dengue virus type 3): ≤ 0.001 µM

GEINGEHVP
Kd ([24]; source organism: Escherichia coli B7A): 0.0878 µM

GRINYYWTL
Kd [25, 48]: 0.025 µM
Kd [1, 48]: 0.049 µM

LEALSPPLL
Kd ([24]; source organism: Escherichia coli E22): 0.0055 µM

LEVSFGSVI
Kd ([24]; source organism: Salmonella enterica subsp. enterica serovar Typhi): 0.0035 µM

NHYLCLNCL
Kd [26, 49]: 0.026 µM
Kd [4, 49]: ≥ 20 µM
Kd [27]: ≥ 20 µM
Kd [5, 49]: ≥ 20 µM
Kd ([8]; source organism: Mammarenavirus lassaense): 0.431 µM
Kd [9, 49]: ≥ 20 µM
Kd [28]: ≥ 20 µM
Kd [10, 49]: ≥ 20 µM
Kd [11, 49]: ≥ 20 µM
Kd [12, 49]: ≥ 20 µM
Kd [15, 49]: ≥ 20 µM
Kd [16, 49]: ≥ 20 µM
Kd [17, 49]: ≥ 20 µM
Kd [20, 49]: ≥ 20 µM
Kd [29, 49]: ≥ 20 µM
Kd [23, 49]: ≥ 20 µM

RLGKGYMF
Kd ([30]; source organism: Influenza A virus (A/Fort Monmouth/1/1947-mouse adapted(H1N1))): 0.0326 µM

RTWFYRTEF
Kd [31, 50]: 0.127 µM
Kd [32, 50]: 0.153 µM
Kd [33]: ≥ 20 µM
Kd [34]: ≥ 20 µM
Kd [35]: ≥ 20 µM
Kd [36]: ≥ 20 µM
Kd [37]: ≥ 20 µM
Kd [38]: ≥ 20 µM
Kd [39]: ≥ 20 µM
Kd [40]: ≥ 20 µM
Kd [41]: 0.0262 µM

TRVTNNVYL
Kd ([26]; source organism: Camelpox virus M-96): 0.0198 µM
Kd ([8]; source organism: Variola virus): 4.06 µM

YIYDGKVNY
Kd [26, 51]: ≥ 20 µM
Kd [42]: ≥ 20 µM
Kd [43]: 0.003 µM
Kd [13, 51]: ≥ 20 µM
Kd [14, 51]: ≥ 20 µM
Kd [44]: ≥ 20 µM
Kd [45]: ≥ 20 µM
Kd [22, 51]: ≥ 20 µM
Kd [29, 51]: ≥ 20 µM

YYGRWVHEF
Kd [31, 52]: ≥ 20 µM
Kd [32, 52]: 0.025 µM
Kd [25, 52]: 0.046 µM
Kd [30, 52]: ≤ 0.0001 µM
